# System: MS2 coat protein
# Assay: apparent KD of MS2 coat protein; higher = weaker reporter binding
# Conditions: Eterna round: R107; input ligand: arginine 13.2 mM
# How it was run: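 Each design's apparent KD comes from the median of binding-curve fits to its normalised clusters. Those clusters carried RNA switches transcribed on-chip from Illumina sequencing clusters. SNAP-549-labelled MS2 coat protein was titrated onto them in twofold steps (0.7 or 1.5 nM to 3 µM; per step 0.8–1.5 h down to 10–20 min). Conditions were 100 mM Tris-HCl pH 7.5, 80 mM KCl, 4 mM MgCl2, without or with constant ligand.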
row,Sequence,apparent KD of MS2 coat protein [nM]
1,UUGGGUAUGCGAAGGAGCGGGAAAUAUAUAUAUAUAAUCCUAACAUGAGGAUCACCCAUGUCCCAGGUAGGUCGCGCAUGUUUGG [12.K],128
2,UAUACAUGAGGAUCACCCAUGUGCCAUGAUACCAGACAUGAAAAUGUCCCUUGGCAGCAUGGUGAUUGUAUAGCGGGAAACCCGA [Utechov],81.3
3,CAUUGAGCAGCUGAUACCAGUGCCUGAACUUACAUGAGGAUCACCCAUGUAUGCCCAAAACACCCUUGGCAGCAGAGGAAGAUCG [theeternabot_sameState_MS2_Theo_B_38],15.2
4,GACCGAUUAUAGUGCGAUUGUCUUGUGGAAGGAGCGCAGAGGACUGCAGGUAGGUCGCCACAUGAGGAUCACCCAUGUCAGGAUU [Reinorlaan],39.8
5,AGCACAUGAGGAUCACCCAUGUGUCGGUACCGAGGACCGGUACGGCCGCCACUCGCAGGACAUGAGGAUCACCCAUGUGCCGCCG [SSTA DOUBLE!!! :-D #8],14
6,GGACUAACCAGAAGGAGCGACACGCAGAAACUGCAAAAUCCUCCGCACGAGGAUCACCCGUGUCAGGUAGGUCGCUGGUUAGUCG,38.6
7,AAUACCGGUCCUCGAAGUGAUCCUCAUGAACGAGGACCGGUACGGCCGCCACUCGAUAACAUGAGGAUCACCCAUGUAAUAAUAA [|T'-M'-Trp-Ms2|_Design4],72.8
8,AUAACAUGAGGAUCACCCAUGUUGAGUGAUACCAGACCAUGUAGUGUCCCUUGGCAGCACAGGUAAAGUUGUAAAUAACGAUAGA [#13 SameState-TheophyllineA],38.6
9,CGAUGCGCAUUAUCCCACUGGUAUGAGUCUCGAGGACCGGUACGGCCGCCACUCGCUACCGUACAUGAGGAUCACCCAUGUAUUA [theeternabot_exclusion_MS2_Trp_A_13],23.7
10,AAAAUCCUAUCUGAGGAUCACCCAGGUGAAGGAGCGCCCGAAAGGGCAGGUAGGUCGCACCUGAGGAUCACCCUGGUAACCUAAA [ArgEX 10 #DoubleMS2 #OpenEnded #AlternativeMS2],85.7
11,AAACGCCACGGAAGGAGCGACAUGAGGAUCACCCAUGUAGAAGUGGCGGAUGCACCCUCCUGUCAGGUAGGUCGCCGUGCGCCAA [XArg-B24],17.1
12,UAAACUACACAUGAGGAUCACCCAUGUGGCCGAGGACCGGUACGGCCGCCACUCGUGUGUUAAUAAAAGAACUGCAAGAUUCUUU [Issoraor],78.3
13,UGGGAAGGAGGAAGGAGCGCCAUAAGGGUGACUGUCUGGGUACAUGAGGAUCACCCAUGUAGGCAGGUAGGUCGCCUCGCUCUCA [Bibienoned],10.3
14,GGGCGCGUGGACCGGCGUGCUCCGCUCCGUCGAGGACCGGUACGGCCGCCACUCGACAUGAGGAUCACCCAUGUGUGAGCUCGCG [#1 Exclusion - Tryptophan A Attempt #16 (HarryS)],22.5
15,AGAGUUAGACAAAAGUCUAGCUCACCAGAAGGAGCGUCCGAAAGGACAGGUAGGUCGCUGGUACAUGAGGAUCACCCAUGUUCCU [ArgAS 8 #OpenEnded],43.5
16,GCUGCCAUACGAAGGAGCGCUGCUGCGAUGUGGCGAACAUGAGGAUCACCCAUGUGGCAGCAGCAGGUAGGUCGCGUAUGGCAGC [#01 Exclusion - Arginine B],131
17,UGUAUGGACUGAAGGAGCGGAAAAUAAACCUGAGGAUCACCCGGGUAAUAGGCGAAAGCCAUCCAGGUAGGUCGCAGUCCAUACU,156
18,AACUGGACCCGUGAUACCAGAGACAUGAGGAUCACCCAUGUACAUGAGGAUCACCCAUGUCUCCCUUGGCAGCACCGCAGGGAGC [Exclusion Theophylline B GF 13],45.7
19,AUUAUCAUGGUCAUAUAUAUUUCGUCAGAUACCAGACUAGAUAUAGUCCCUUGGCAGCUGUUACAUGAGGAUCACCCAUGUUAUA [JR_ExcTheophyA_Sub016],55
20,UGUAUGUGAUCUGAUACCAGCCUCAUAACUUGAGGAUCACCCAAGUGGAGCGGAAACGCUGGCCCUUGGCAGCAGAUCGCAUACU [TheoBS 2 #AlternativeMS2],205

row,Sequence,apparent KD of MS2 coat protein [nM]
1,AGUAACAUGAGGAUCACCCAUGUAUGAGAAGGAGCGUGUUUUAACACAGGUAGGUCGCUCAAUAUUAUUUACUAGCGAAAGCUAG [JR_SSArginiA_Sub007],22
2,CAGACUAGGGCGGCCGCCACUGUGGCUACGGUACAUGAGGAUCACCCAUGUUUGUGGUUGAUCUACAGGACCGGGCCCUGGCACG [Orbera],9.05
3,GCACAUGAGGAUCACCCAUGUAUUACUGAAGGAGCGAGACAGAACUCAGGUAGGUCGCAGACUGCACAAUUGCGGACGACAUGGG [Exclusion Arginine A GF22],14.6
4,GGAUAGGACAGAAGGAGCGACAUCGCCGAAAGGCUGGUAAGAUCACAUGAGGAUCACCCAUGUCAGGUAGGUCGCUGUCCUAUCG [ArgXB 11 #Zipper #MS2Left #StaticStem #Blueprint],92.2
5,GGGUAAGAUCCGGAUACCAGCGAACAUGAGGAUCACCCAUGUGACCUAAGAUAGGCUAAACGCCCUUGGCAGCCGAGAUAGCGUU [Same State Theophylline B GF 6],27.2
6,AACAUGAGGAUCACCCAUGUCUGAACUGAAGGAGCGCUAAAUAAGGCAGGUAGGUCGCGGAAUUUUAUAUAUAUAUAUAUAUGGG [9.E],13.7
7,CACAAUUUGUCGGCCGCCACUAAGGUAACUUUUCUCACAUGAGGAUCACCCAUGUGCCCGAAACUUAGGACCGGGAUAAUGGGUG [Usteraor],35.9
8,UGAUACCAGUCGGCCGCCACUACAUGAGGAUCACCCAUGUAUCCUCAACUGCUAGAUACUAGCAGUAGGACCGGGACUGGUAUCU,164
9,CCUAUUCCUACGGAUACCAGACGAUCCGUGGCGUGUGUGAACAUGAGGAUCACCCAUGUAGUCCCUUGGCAGCCGAUGCGGGUAA [theeternabot_exclusion_MS2_Theo_B_10],37.7
10,AUCGUACCUGAGGAUACCAGCAUGUGAUCAUAACAUGAGGAUCACCCAUGUAAUCAGUGAUGCCCUUGGCAGCUUGGUCGAUACA [Same State - Theophylline B (Freestyle 9)],42.5
11,UGAAAGUAGGGAAGGAGCGCUACAACAUGAGGAUCACCCAUGUAAUGAGGAUCACCCAUGUGGCAGGUAGGUCGCCCAAAACAUG [#14 Same State - Arginine B],85
12,UCGUGCAGAGCGGCCGCCACUGUAUUGCGUGCGGAUGACGGAACAUGAGGAUCACCCAUGUUGUUUAGGACCGGGCUUGCCACCA ['xmullin],12.4
13,GGACUCGUCACGGCCGCCACUGCGGUGGUGUGACAUGAGGAUCACCCAUGUUGUCAUGCGGCCCUUAGGACCGGGUGUCGCUUCC [#1 Exclusion - Tryptophan B Attempt #24 (HarryS)],124
14,AGGUGCAAAGCACCCUCUGGCCCUCGUGAAGGAGCGCUCGAAAGAGCAGGUAGGUCGCAUGAGGAUCACCCAUGUGAGCCAGAGA [Arg A Exc A v1],35.1
15,AACGUAUACAGAAGGAGCGUGAUUUAUAUUUCUUUAACAUAUACAUGAGGAUCACCCAUGUCACAGGUAGGUCGCUGUAUUCGUA [JR_ExcArginiB_Sub023],33.6
16,CAUUAUGUAACUGAUACCAGUGUACUGACAUGAGGAUCACCCAUGUUGGGUUUUGUUGUACACCCUUGGCAGCAGAAUCAUAAUG [AstrosExyTheB#2],43.3
17,GGAUAGGACACGGCCGCCACUAGCUAGGAUACUAGCAACAUUUCCUCACUUGAGGAUCACCCAAGUAGGACCGGGUGUCCUAUCG,95.2
18,CUAAGAGCGGCGGCCGCCACUGGUAACCGAGAGGAGGAGCCUCUGACAUGAGGAUCACCCAUGUUCAGGACCGGGUCGUCUUAGA [#06 Same State - Tryptophan B],41.2
19,GAGGGUGAAUCUCUGGUCCGUUUGACGGAUACCAGCGAGAGGUAUCGCCCUUGGCAGCCGACGACAUGAGGAUCACCCAUGUUAA [#08 Exclusion-TheophyllineA],18.9

# Same assay, conditions: Eterna round: R107; input ligand: none
row,Sequence,apparent KD of MS2 coat protein [nM]
1,UUGGGUAUGCGAAGGAGCGGGAAAUAUAUAUAUAUAAUCCUAACAUGAGGAUCACCCAUGUCCCAGGUAGGUCGCGCAUGUUUGG [12.K],207
